This note sets out measurements from doi:10.1101/2023.04.11.536446.

The test has as its target Langya virus fusion protein (LayV-F) ectodomain, uncleaved (Langya virus). Kind of test: cryo-EM structure.

The term stoichiometry N denotes the number of molecules, sites or subunits per partner or assembly. “Langya virus fusion protein (LayV-F) ectodomain, uncleaved (domain or fragment)” displayed a stoichiometry N of 3.
